Measured values: patent US20190017046A1

Experiments:
[1] = target: lysozyme, fluorescence-labeled with Alexa Fluor 488; assay: fluorescent lysozyme retained in the sponge after 3 h in 10x diluted PBS; supernatant fluorescence, plate reader
[2] = target: lysozyme, fluorescence-labeled with Alexa Fluor 488; assay: grade of lysozyme carrying rate in the summary table (B: 25% or higher and less than 50%)
[3] = target: lysozyme, fluorescence-labeled with Alexa Fluor 488; assay: grade of lysozyme carrying rate in the summary table (C: less than 25%)
[4] = target: lysozyme, fluorescence-labeled with Alexa Fluor 488; assay: grade of lysozyme carrying rate in the summary table (A: equal to or higher than 50%)

“member for a preparation "B": thermally crosslinked substance of CBE3 and succinylated CBE3, molar ratio of CBE3 to succinylated CBE3 = 1 to 1” showed a lysozyme carrying rate (actual measurement value) [1] of 66%.

Substance “member for a preparation "C": thermally crosslinked substance of CBE3 and succinylated CBE3, molar ratio of CBE3 to succinylated CBE3 = 3 to 1” has a lysozyme carrying rate (actual measurement value) [1] of 38% and a lysozyme carrying rate [2] of 25 to 50%.

“member for a preparation "G": thermally crosslinked CBE3 only, molar ratio of CBE3 to succinylated CBE3 = 1 to 0” was tested, and the lysozyme carrying rate [3] was under 25% and the lysozyme carrying rate (actual measurement value) [1] was 8%.

For “member for a preparation "A": thermally crosslinked substance of CBE3 and succinylated CBE3, molar ratio of CBE3 to succinylated CBE3 = 1 to 3”, the lysozyme carrying rate [4] was over 50% and the lysozyme carrying rate (actual measurement value) [1] was 71%.
